This is an account of results in paper PMC3623829.

Assay [1] addresses HIV-1 CA (capsid protein) Q63C/Y169C (HIV-1). Briefly: cross-linking; spontaneous disulfide crosslinking of engineered cysteines in virions; viruses pelleted through 20% sucrose (100,000 x g, 30 min), dissolved in SDS sample buffer without beta-mercaptoethanol, 95°C 5 min, SDS-PAGE, immunoblot with rabbit polyclonal anti-CA antibody. For orientation: A western blot detects proteins with antibodies after separation by electrophoresis.

Assay [2] addresses HIV-1 CA (capsid protein) M68C/E212C (HIV-1). Described as above.

The stoichiometry N is a count of units in the complex or per binding partner. As to “HIV-1 CA (capsid protein) Q63C/Y169C (natural protein)”, the stoichiometry N in assay [1] is 6.
In assay [2], “HIV-1 CA (capsid protein) M68C/E212C (natural protein)” came in with a stoichiometry N of 6.
